Our source for the Kd and Ka values is paper PMC8480326, “Chemoenzymatic glycan-selective remodeling of a therapeutic lysosomal enzyme with high-affinity M6P-glycan ligands. Enzyme substrate specificity is the name of the game” (Chemical Science, 2021).

The target of the experiment is T1, Recombinant human IGF-II R (CI-MPR) (Homo sapiens, UniProt P11717).
T1 construct: purchased R&D Systems
Description: SPR binding to immobilized CI-MPR. (In general: Surface plasmon resonance follows binding to a sensor surface in real time, without labels.)

For orientation: Kd means the concentration at which binding is half-saturated.

T1 sequence (P11717 41-2491): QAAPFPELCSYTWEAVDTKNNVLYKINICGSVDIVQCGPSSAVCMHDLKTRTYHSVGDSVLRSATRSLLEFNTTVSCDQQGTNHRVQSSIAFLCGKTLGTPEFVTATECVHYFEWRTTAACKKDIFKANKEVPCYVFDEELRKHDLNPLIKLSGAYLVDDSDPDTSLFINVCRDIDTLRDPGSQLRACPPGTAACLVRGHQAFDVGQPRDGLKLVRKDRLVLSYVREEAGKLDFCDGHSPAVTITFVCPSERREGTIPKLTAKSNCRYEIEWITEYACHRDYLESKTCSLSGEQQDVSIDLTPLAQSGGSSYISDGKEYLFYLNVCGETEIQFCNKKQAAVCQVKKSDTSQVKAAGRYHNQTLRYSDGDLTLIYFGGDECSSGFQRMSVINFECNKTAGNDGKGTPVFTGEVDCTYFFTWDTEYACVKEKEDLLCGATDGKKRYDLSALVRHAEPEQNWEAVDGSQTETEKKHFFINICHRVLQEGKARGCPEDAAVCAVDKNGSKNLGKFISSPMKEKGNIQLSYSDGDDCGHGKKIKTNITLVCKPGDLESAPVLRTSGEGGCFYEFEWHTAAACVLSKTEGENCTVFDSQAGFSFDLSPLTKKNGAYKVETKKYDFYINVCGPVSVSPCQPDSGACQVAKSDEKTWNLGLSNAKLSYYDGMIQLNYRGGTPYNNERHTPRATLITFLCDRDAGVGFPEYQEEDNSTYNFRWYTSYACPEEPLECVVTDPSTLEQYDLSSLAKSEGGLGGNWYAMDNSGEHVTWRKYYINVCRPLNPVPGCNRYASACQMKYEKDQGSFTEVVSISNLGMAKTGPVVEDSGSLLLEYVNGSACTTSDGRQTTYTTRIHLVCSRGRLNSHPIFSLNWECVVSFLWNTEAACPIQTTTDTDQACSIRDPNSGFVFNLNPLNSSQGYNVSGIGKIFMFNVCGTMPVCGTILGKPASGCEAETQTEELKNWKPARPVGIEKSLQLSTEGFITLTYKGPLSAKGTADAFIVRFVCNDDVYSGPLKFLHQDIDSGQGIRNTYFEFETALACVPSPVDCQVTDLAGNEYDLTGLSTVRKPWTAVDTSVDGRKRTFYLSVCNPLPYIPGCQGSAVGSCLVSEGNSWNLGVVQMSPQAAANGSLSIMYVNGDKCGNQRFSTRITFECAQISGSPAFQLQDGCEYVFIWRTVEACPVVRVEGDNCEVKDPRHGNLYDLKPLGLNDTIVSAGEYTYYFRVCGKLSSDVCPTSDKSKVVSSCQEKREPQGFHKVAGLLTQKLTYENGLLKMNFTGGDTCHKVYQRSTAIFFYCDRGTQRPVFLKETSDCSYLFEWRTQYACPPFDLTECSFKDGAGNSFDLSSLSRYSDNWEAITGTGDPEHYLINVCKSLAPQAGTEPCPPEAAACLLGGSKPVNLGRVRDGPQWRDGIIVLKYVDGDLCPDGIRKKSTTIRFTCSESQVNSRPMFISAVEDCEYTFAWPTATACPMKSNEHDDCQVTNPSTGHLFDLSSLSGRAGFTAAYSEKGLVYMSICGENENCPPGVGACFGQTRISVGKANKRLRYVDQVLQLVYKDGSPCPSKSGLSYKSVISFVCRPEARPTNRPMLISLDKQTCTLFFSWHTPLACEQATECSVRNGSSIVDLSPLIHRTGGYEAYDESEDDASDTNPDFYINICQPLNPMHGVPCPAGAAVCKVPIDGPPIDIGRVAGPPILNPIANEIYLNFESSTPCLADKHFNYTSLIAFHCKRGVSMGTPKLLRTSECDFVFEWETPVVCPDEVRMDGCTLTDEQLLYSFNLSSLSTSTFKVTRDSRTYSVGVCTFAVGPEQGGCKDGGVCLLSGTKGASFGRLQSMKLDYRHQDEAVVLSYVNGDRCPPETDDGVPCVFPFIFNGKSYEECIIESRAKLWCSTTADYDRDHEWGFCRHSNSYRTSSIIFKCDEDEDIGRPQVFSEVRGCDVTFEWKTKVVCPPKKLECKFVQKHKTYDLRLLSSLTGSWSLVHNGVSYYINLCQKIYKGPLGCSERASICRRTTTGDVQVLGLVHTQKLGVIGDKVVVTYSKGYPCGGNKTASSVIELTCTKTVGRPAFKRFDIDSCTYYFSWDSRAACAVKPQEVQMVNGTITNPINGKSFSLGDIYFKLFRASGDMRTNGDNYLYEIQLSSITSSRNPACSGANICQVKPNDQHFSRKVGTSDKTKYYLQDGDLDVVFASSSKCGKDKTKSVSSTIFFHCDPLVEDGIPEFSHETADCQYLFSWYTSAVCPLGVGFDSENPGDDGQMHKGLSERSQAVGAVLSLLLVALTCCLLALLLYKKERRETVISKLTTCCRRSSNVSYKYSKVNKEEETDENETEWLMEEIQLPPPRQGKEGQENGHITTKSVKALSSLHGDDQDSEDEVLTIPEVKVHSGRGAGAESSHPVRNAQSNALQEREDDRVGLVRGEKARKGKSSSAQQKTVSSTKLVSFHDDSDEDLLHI
Description: Surface Plasmon Resonance (SPR) Measurements. SPR measurements were performed on a Biacore T200 instrument (GE Healthcare). Recombinant human IGF-II R (CI-MPR) was purchased
from R&D Systems. Approximately 7000 resonance units (RU) of CI-MPR was immobilized on a
CM5 sensor chip in a sodium acetate buffer (25 μg/mL, pH 4.0) at 25 °C, using the amine coupling kit
provided by the manufacturer. Mannose 6-phosphate containing glycopeptides or glycoproteins were
determined at 25 °C under a flow rate of 10 μL/min. HBS-P+ buffer (10 mM HEPES, 150 mM NaCl,
0.05% surfactant P20, pH 7.4) was used as sample buffer and running buffer. Association was
measured for 3 min and dissociation for 10 min at same flow rate (10 μL/min). The surface
and glycoprotein analytes flowed over an immobilized chip with 2-fold serial dilution of the highest
concentration of 4 μM (for glycopeptides) or 1 μM (for RNase B) or 250 nM (for rhGAA).
analyses were performed by global fitting of the binding data to a 1:1 Langmuir binding model using

B1: 68: M6P-containing RNase B, remodeled with tetrasaccharide oxazoline 8 by Endo-A (protein, UniProt P61823 27-150, looked up)
Ribonuclease pancreatic: KETAAAKFERQHMDSSTSAASSSNYCNQMMKSRNLTKDRCKPVNTFVHESLADVQAVCSQKNVACKNGQTNCYQSYSTMSITDCRETGSSKYPNCAYKTTQANKHIIVACEGNPYVPVHFDASV
modifications: M6P-tetrasaccharide glycan remodeled by Endo-A
notes: M6P-containing RNase B, remodeled with tetrasaccharide oxazoline 8 by Endo-A
B1: the dissociation constant Kd reads like this: (SPR, immobilized CI-MPR, 25 °C, average of three independent experiments) 15.8 nM; (representative SPR sensorgram, single experiment) 15.5 nM. Where the note is “representative SPR sensorgram, 1:1 Langmuir fit, association constant”, the Ka was 6.877E+4.
